In publication PMC10720262 (2023):

molecular target: PfCSP full length (Plasmodium falciparum (isolate NF54), UniProt P19597); assay: ELISA AUC
Sequence (P19597 20-375): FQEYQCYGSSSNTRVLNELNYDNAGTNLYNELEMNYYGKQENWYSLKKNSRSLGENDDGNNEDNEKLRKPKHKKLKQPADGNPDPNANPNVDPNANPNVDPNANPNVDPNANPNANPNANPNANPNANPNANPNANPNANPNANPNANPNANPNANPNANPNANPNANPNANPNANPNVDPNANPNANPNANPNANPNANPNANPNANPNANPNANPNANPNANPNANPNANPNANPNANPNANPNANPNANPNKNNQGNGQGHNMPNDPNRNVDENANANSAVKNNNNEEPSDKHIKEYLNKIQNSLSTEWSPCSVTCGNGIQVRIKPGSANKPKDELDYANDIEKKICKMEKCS

| Binder | binding score |
| --- | --- |
| CL-510082 (antibody, V domains shown, peptides N-terminally acetylated and C-terminally amidated) VH: QVQLVESGGGVVQPGKSLRLSCVASGFTFSNNGMHWIRQAPGKGLEWVAIIWYDGSNKFYADSVKGRFTISRDNSHNTLYLQMNSLRAEDTAVYYCARDRMFGSGTWNYFDPWGQGTLVTVSS VL: EIVLTQSPATLSLSPGERATLSCRASQSVSTYLAWYQQKPGQAPRLLIYDASNRATGIPARFSGSGSGTDFTLTISSLEPEDFAVYYCQQRSYWWTFGQGTKVEIK | 2.38 |
| Ky311 (antibody, V domains shown, peptides N-terminally acetylated and C-terminally amidated) VH: QMHLVESGGGVVQPGRSLRLSCVASGFTFNNHGMHWVRQAPGKGLEWVAVIWHDGSNKFYADSVNGRFIVSRDNSKNTLYLHMNSLRAEDTAVYYCARDFFVSGSYNYFDPWGQGTLVTVSS VL: EIVLTQSPVTLSLSPGERATLSCRASQSVSNYLAWYQQKPGQAPRLLIYDAANRATGTPARFSGSGSGTDFTLTISSLEPEDFAVYFCQQRSKWFTFGPGTKLDIK | 2.22 |
| CL-444592 (antibody, V domains shown, peptides N-terminally acetylated and C-terminally amidated) VH: QVQLVESGGGVVQPGRSLRLSCAASGFTFSSYGMHWVRQAPGKGLEWVAVIWYDGSNKYYADSVKGRFTISRDNSKNTLYLQMNSLRAEDTAVYYCARDGNWNYNYYYGMDVWGQGTTVTVSS VL: DIQLTQSPSFLSASVGDRVTITCWASQGISSYLAWYQQKPGKAPKLLIYAASTLQSGVPSRFSGSGSGTEFTLTISSLQPEDFATYYCQQLNSYPPTFGQGTRLEIK | 1.5 |
| CL-453181 (antibody, V domains shown, peptides N-terminally acetylated and C-terminally amidated) VH: QVQLVESGGGVVQPGRSLRLSCAASGFTFSYYGMHWVRQAPGKGLEWVSIIWYDGSNKFYADSVKGRFTISRDNSKDTLYLEMNSLRAEDTAVYYCARVEFYNGSGRDFYYGLDVWGQGTTVTVSS VL: EIVMTQSPATLSVSPGEGATLSCRASQSVSSNLAWYQQKPGQAPRLLISGASTRATGVPARFSGSGSGTEFALTISSLQSEDFAVYYCQQYSKLWTFGQGTKVEIK | 2.6 |
| CL-437492 (antibody, V domains shown, peptides N-terminally acetylated and C-terminally amidated) VH: QEQLVESGGGVVQPGNSLRLSCVASGFTFSNHGMHWVRQAPGKGLEWVAIIWYDGSQKFYSDSVKGRFTISRDNSKNTLYLQMNSLRAEDTAIYYCARVDWSGNDWGWFDPWGQGTLVTVSS VL: EIVLTQSPDTLSLSPGERATLSCRASQTLSSRHLAWYQQKPGQAPRLLIYGASSRATGIPDRFSGSGSGTDFTLTINRLEPEDFAVFYCQQYGRLWTFGQGTKVEIK | 2.2 |
| CL-512508 (antibody, V domains shown, peptides N-terminally acetylated and C-terminally amidated) VH: QVQLVESGGGVVQPGTSLRLSCGASGFTFSSYGMHWVRQAPGKGLEWVAIIWYDGNNKYYADSVKGRFTISRDNSKNTLYLQMNSLRAEDTAVYYCAKVGQFSTSSWGAFDIWGQGTMVTVSS VL: EIVLTQSPGTLPLSPGERATLSCRASQSVSSSQLAWYQQKPGQAPRLLIYGASSRATAIPDRFSGSGSGTDFTLTISRLEPEDFAVYYCQQYSRLWTFGQGTKVEIK | 2.01 |
| CL-445901 (antibody, V domains shown, peptides N-terminally acetylated and C-terminally amidated) VH: QVQLVESGGGVVQPGRSLRLSCAASGFTFSNYGIHWVRQAPGKGLEWVALIWFNGNNKFYADSVEGRFTVSRDNSKNTLYLQLNSLRAEDTAVYYCARAYYFASGNYMDYWGQGTLVTVSS VL: DIQMTQSPSSVSASMGDRVTITCRASQDISSSLAWYQQKPGKAPILLISFASSLHSGVPSRFSGSGSGTDFTLTISSLQPEDFATYSCQQANSFPWTFGQGTRVEVK | 2.4 |
| CL-531271 (antibody, V domains shown, peptides N-terminally acetylated and C-terminally amidated) VH: QVQLVESGGGEVQPGRSLRLSCAASGFTFSNYGMHWVRQAPGKGLEWVALIWYDGNNKFYADSVNGRFTISRDNSNNTLYLQMNSLRAEDTGVYYCARSFYYVSGNFFDYWGQGTLVTVSS VL: DIPMTQSPSSVSASVGDRVTITCRASQGISTWLAWYQQKPGKAPKFLIYAASSLQSGVPSRFSGSGSGTDFTLTIYSLQPEDFATYYCQQGNSFPWTFGQGTKVEIK | 2.36 |
| CL-460619 (antibody, V domains shown, peptides N-terminally acetylated and C-terminally amidated) VH: QVQLVESGGGVVQPGRSLRLSCAASGFTFDYYGMHWVRQAPGKGLEGVAIIWYDGSNKFYADSVKGRFTISRDNSKNTLYLQMTSLRVEDTAVYYCARDGRIGDPGPYFDYWGQGTLVTVSS VL: EIVMTQSPATLSVSPGERPTLSCRASQSVSSKLAWYQQKPDQAPRLLIYGASTRATGIPPRFSGSGSGTEFTLTIDSLQSEDFAVYYCQQYHKWWTFGQGTKVEIK | 2.2 |
| CL-512023 (antibody, V domains shown, peptides N-terminally acetylated and C-terminally amidated) VH: QVQLMESGGGVVQPGRSLRLSCEASGFTFSNSGMHWVRQAPGKGLEWVAIIWYDGSNRYYVDSVKGRFTISRDNSKNTLYLQMNSLRAEDTAVYYCARDGGNRYGYGWFDSWGQGTLVTVSS VL: QSVLTQPPSVSGAPGQRVTISCTGSSSNIGAGYDVHWYQQLPGTAPKLLIYGNTNRPSGVPDRFSGSKSGTSASLAITGLQAEDEADYYCQSYDSSLGGSRRVFGGGTKLTVL | 2.59 |
| CL-458015 (antibody, V domains shown, peptides N-terminally acetylated and C-terminally amidated) VH: QVHLVESGGGVVQPGRSLRLSCAASGFTFSNYGMHWVRQAPGKGLDWVAIIWYDGSNKFYADSVQGRFTISRDNSKNTLYLQMNSLRAEDTAVYYCAKVQDLLGVPSTLGDHYTTDVWGQGTSVTVSS VL: DIQMTQSPSTLSASVGDRITITCRASQSINDWLAWYQQKAGKAPKLLIYKASSLESGVPSRFSGSGSGTDFTLTISSLQTDDFAIYYCQQYNHYWTFGQGTKVEIK | 2.2 |
| CL-511862 (antibody, V domains shown, peptides N-terminally acetylated and C-terminally amidated) VH: QVQLVESGGGVVQPGKSLRLSCAASGFSFSSSGMHWVRQAPDKGLEWVAIIWYDGSHKFYADSVKGRFTISRDNSDNTLFLQMDSLRAEDTAVYYCVRAYPTSYNGNYDKYGMDVWGQGTTVTVSS VL: DIQMTQSPSTLSASVGDRVTIACRASQSISTWLAWYQQKPGKAPKLLIYKASTLESGVPSRFSGSGSGTEFTLTISSLQPDDFATYYCQQFTFYWTFGQGTKVEIK | 2.53 |
| CL-459075 (antibody, V domains shown, peptides N-terminally acetylated and C-terminally amidated) VH: QVQLVASGGGVVQPGRSLRLSCAASGFTFSNYGMHWVRQAPGKGLEWVSIIWYDGSKKYYSDSVKGRFTISRDNSKNTLYLQMNSLRAEDTAVYYCARAYGSGSYSDDYYGMDVWGQGTTVTVSS VL: DIQMTQSPSTLSASVGDRVTITCRASQSISTWLAWCQQKPGKAPKLLIYKASNLESGVPSRFSGSGSGTEFTLTISSLQPDDFATYYCQQYYSYWTFGQGTKVEIK | 2.5 |
| CL-508758 (antibody, V domains shown, peptides N-terminally acetylated and C-terminally amidated) VH: QVQLVESGGGVVQPGRSLRLSCAASGFTFSNYGMHWVRQTPGRDLEWVAIIWYDGSYKFYADSVKGRFSISRDNSKNTLNLEMKSLRVEDTAVYYCAKAYDTSSDDKYGMDVWGQGTTVTVTS VL: DIQMTQSPSTLSASVGDRVTITCRASQSISIWLAWYQQKPGKAPKLLIYRASDLESGVPSRFSGSGSGTGFTLTISSLQPDDFATYYCQQYNSYWTFGQGTKVEIK | 2.17 |
| CL-447563 (antibody, V domains shown, peptides N-terminally acetylated and C-terminally amidated) VH: QVQLVASGGGVVQPGRSLRLSCAASGFTFSNYGMHWVRQAPGKGLEWVAIIWYDGSKKYYSDSVKGRFTISRDNSKNTLYLQMNSLRAEDTAVYYCARAYGSGSYSDDYYGMDVWGQGTTVTVSS VL: DIQMTQSPSTLSASVGDRVTITCRASQSISTWLAWYQQKPGKAPKLLIYKASNLESGVPSRFSGSGSGTEFTLTISSLQPDDFATYYCQQYYSYWTFGQGTKVEIK | 2.5 |
| CL-513069 (antibody, V domains shown, peptides N-terminally acetylated and C-terminally amidated) VH: QVQLVESGGGVVQPGKSLRLSCEASGFTFSNYGMHWVRQAPGKGLDWVAIIWHDGGNKFYADSVRGRFTISRDNSKNTLFLQMNSLRAEDSAVYYCARVFDFRDSCYTMDVWGQGTTVTVSS VL: DIQMTQSPSTLSASVGDRVTITCRASQSISSWLAWYQQKPGKAPKLLIYKASSLESGVPSRFSGSGSGTEFSLTISSLQPDDFATYYCQQYTRYWTFGQGTRVEIQ | 2.2 |
| CL-512319 (antibody, V domains shown, peptides N-terminally acetylated and C-terminally amidated) VH: QVQLVESGGGVVQPGRSLRLSCAASGFTFSNFGMHWVRQAPGKGLEWVAVIWYDGSHKFYADSLKGRFTISRDNSKNTLYLQMNNLRAEDTAVYYCARAHPVTTDYDKYGMDVWGQGTTVTVSS VL: DIQMTQSPSTLSSSVGDRVTITCRASQSISIWLAWIQQKPGKAPKLLIYKASSLESGVPSRFSGSGSGTEFTLTISSLQPDDFATYYCQQFYSYWTFGLGTKVEIK | 2.08 |
| CL-511296 (antibody, V domains shown, peptides N-terminally acetylated and C-terminally amidated) VH: QVQLVASGGGVVQPGRSQRLSCAASGFTFSNYGMHWVRQSPGRGLEWVAIIWYDGSNKFYADSVKGRFTISRDNSRNTLFLQMNSLRAEDTAIYYCAKSEERTSDNYFKYGMDVWGQGTTVIVST VL: DIQMTQSPSTLSASVGDRVTITCRASQSISSWLAWYQQKPGKAPKLLIYKASNLESGVPSRFSGSGSGTEFTLSISNLQPDDFATYFCQQYTSYWTFGQGTKVEIK | 2.34 |
| CL-512191 (antibody, V domains shown, peptides N-terminally acetylated and C-terminally amidated) VH: QVQLVESGGGVVQPGRSLRLSCAASGFTFSNYAMHWVRQAPGKGLEWVAVIWYDGSNKYYADSVKGRFTISRDDSKNTLYLQMNSLRAEDTAVYYCARDKGYRYGFNWFDPWGQGTLVTVSS VL: QSVLTQPPSVSGAPGQRVTISCTGSSSNIGAGYDVHWYQKLPGTAPKLLIFSNSNRPSGVPDRFSGSKSGTSASLAITGLQAEDEADYYCQSYDSSLSGSRVFGGGTKLTVL | 2.31 |
| CL-449759 (antibody, V domains shown, peptides N-terminally acetylated and C-terminally amidated) VH: QVHLVESGGGVVQPGESQRLSCAASGFTFSNYGMHWVRQAPGKGLEWVALIWYDGSNKFYADSVKGRFTISRDNSKNTLYLHMNSLRAEDTAMYYCAKVPNWNDDKYTMDVWGQGTTVTVTS VL: not shown | 2.4 |
| CL-510433 (antibody, V domains shown, peptides N-terminally acetylated and C-terminally amidated) VH: QVQLVESGGGVVQPGRSLRLSCVASGFTFSSYGMHWVRQAPGKGLEWVAVIWYDGSNKYYADSVKGRFTVSRDNSKNTLYLQMNSLRAEDTAVYYCARVYYYGSGSYSPYYYALDVWGHGTTVTVSS VL: EIVMTQSPATLSVSPGERATLSCRASQSISSNLAWYQQKPGQAPRLLIYGASIRATGIPARFSGSGSGTEFTLSISILQSEDFAIYYCQQYNNWWTFGQGTKVEIK | 1.76 |
| Ky230 (antibody, V domains shown, peptides N-terminally acetylated and C-terminally amidated) VH: QVQLVESGGGVVQPGRSLRLSCAASGFTFSDYGMHWVRQAPGKGLEWVAIIWHDGSNKYYVDSVKGRFTISRDNSKNTLYLQMNSLRAEDTAVYYCARAASSFGSGFDYWGQGTLVTVSS VL: DVVMTQSPLSLPVTLGQPASIFCRSSQSLVYSDGNTYLNWFQRRPGQSPRRLIYKVSDRDSGVPDRFSGSGSGTDFTLQISRVEAEDVGVYYCMQGTHWPPTFGQGTKVEIK | 2.4 |
